This note sets out measurements from US20250171536A1 (CSL INNOVATION, published 2025).

For assay [1], the target named is Human CD117 (c-kit), cell-surface expressed (human, UniProt P10721 26-976). Kind of assay: cell-based or functional assay.
For assay [2], the target named is T1, Soluble 8xHis-tagged C-terminal fragment of human CD117 (HuCD117 308-524) (human, UniProt P10721 308-524).
T1 construct: C-terminal part of the extracellular region; also called C-terminal domain; not shown: 8xHis tag
T1 sequence (P10721 308-524): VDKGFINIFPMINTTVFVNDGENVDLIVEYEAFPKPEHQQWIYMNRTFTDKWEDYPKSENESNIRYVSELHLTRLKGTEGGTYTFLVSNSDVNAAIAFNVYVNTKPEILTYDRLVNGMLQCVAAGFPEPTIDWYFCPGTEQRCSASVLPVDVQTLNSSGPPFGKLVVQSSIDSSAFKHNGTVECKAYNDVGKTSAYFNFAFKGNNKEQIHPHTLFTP
Kind of assay: SPR (Biacore 4000), IgG4 antibody captured on protein G, soluble His-tagged fragment injected at 25, 75, 225 nM.

In assay [3] the target is T2, Soluble 8xHis-tagged N-terminal fragment of human CD117 (HuCD117 1-307) (human, UniProt P10721 26-307).
T2 construct: This range counts from the precursor start, so a signal peptide is probably cleaved in the secreted protein; also called N-terminal domain; soluble N-terminal; not shown: 8xHis tag
T2 sequence (P10721 26-307): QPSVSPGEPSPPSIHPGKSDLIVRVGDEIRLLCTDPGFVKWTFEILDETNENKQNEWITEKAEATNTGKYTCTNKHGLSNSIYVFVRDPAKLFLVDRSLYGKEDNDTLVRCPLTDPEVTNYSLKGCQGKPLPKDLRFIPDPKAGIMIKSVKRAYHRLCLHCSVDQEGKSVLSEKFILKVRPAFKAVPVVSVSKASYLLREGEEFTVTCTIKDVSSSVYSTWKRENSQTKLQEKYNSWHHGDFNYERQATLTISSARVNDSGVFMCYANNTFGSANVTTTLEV
Kind of assay: SPR Biacore 4000, antibody captured on protein G, His-tagged fragment analyte, 1:1 fit, N=1.

In assay [4] the target is T3, Murine CD117, soluble (MuCD117 1-527) (mouse, UniProt P05532 25-527).
T3 construct: Residues as printed
T3 sequence: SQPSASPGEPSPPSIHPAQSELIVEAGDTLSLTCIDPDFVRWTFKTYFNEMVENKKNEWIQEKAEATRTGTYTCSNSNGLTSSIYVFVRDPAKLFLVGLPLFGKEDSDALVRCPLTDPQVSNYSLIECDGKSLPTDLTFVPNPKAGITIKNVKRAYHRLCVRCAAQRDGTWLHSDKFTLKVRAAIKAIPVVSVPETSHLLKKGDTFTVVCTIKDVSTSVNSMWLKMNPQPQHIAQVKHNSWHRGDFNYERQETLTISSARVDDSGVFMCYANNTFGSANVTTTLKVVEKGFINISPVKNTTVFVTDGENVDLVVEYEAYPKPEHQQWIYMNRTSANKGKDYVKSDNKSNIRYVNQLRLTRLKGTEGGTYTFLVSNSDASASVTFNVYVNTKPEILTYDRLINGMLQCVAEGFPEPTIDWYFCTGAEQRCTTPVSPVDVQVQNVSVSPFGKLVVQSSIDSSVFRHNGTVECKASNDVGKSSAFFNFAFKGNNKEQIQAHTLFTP
Description: SPR, captured antibody, soluble CD117 analyte.
Description: (§1) Biacore 4000 was used for all binding analyses. Experiments were performed at pH 7.3, 37° C. and under flow rate of 30 μL/min. Human anti-CD117 antibodies were surface captured using either polyclonal goat anti-human IgG or IgA antibodies directly immobilised onto the carboxymethyl dextran surface of CM5 sensorchips to approximately 13,000 RU using standard NHS/EDC chemistry at pH 5. The immobilised antibody surface was pre-conditioned with ten injections of human polyclonal IgG (Privigen 60s, 10 μg/mL) each followed by a regeneration cycle with 100 mM H3PO4.
(§2) A total of 18 anti-CD117 antibodies (2 μg/mL) were tested as captured ligands against four soluble mammalian CD117 receptor variants: the N-terminal domain of human CD117 (HuCD1₁₇₁₋₃₀₈), full length human CD117 (HuCD1₁₇₁₋₅₂₄), cyno CD117 (cynoCD117₁₋₅₂₀), and murine CD117 (MuCD117₁₋₅₂₇).
(§3) CD117 proteins were prepared in two-fold dilutions ranging from 0.8 to 200 nM. Anti-CD117 antibodies huAb249, huAb85, huCK6 and huhzSR1 were used as positive controls. BM4 was prepared in an IgG and IgA2 format and used as negative control. Binding affinities were calculated from sensorgrams double-referenced using reference surface and blank buffer injection data gathered within each experiment.

For assay [5], the target named is T4, Cyno CD117, soluble (cynoCD117 1-520) (cynomolgus monkey, UniProt P10721 26-520 (human entry)).
T4 construct: Residues as printed
T4 chain: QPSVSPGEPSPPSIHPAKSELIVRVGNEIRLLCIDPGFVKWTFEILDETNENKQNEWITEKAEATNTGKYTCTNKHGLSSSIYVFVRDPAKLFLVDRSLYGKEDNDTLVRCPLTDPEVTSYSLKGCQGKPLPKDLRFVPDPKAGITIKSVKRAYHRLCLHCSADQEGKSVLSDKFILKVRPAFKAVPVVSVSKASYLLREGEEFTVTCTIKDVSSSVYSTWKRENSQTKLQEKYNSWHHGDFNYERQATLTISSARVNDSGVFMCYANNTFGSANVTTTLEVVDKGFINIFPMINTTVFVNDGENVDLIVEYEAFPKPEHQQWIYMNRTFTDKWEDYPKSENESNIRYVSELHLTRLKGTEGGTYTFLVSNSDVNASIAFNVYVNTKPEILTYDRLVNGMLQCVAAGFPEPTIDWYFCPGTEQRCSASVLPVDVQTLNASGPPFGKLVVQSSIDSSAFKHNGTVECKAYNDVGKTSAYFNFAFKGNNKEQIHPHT
Kind of assay: SPR Biacore 4000, captured antibody, soluble CD117 analyte, 1:1 fit.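 Further: antibodies captured on CM5 chips via goat anti-human IgG or IgA, CD117 analyte in two-fold series 0.8–200 nM, run at pH 7.3 and 37 °C, double-referenced sensorgrams.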
Description: as §1, §2, §3

In assay [6] the target is T5, Full length human CD117, soluble (HuCD117 1-524) (human, UniProt P10721 26-524).
T5 construct: also called full-length protein
T5 sequence (P10721 26-524): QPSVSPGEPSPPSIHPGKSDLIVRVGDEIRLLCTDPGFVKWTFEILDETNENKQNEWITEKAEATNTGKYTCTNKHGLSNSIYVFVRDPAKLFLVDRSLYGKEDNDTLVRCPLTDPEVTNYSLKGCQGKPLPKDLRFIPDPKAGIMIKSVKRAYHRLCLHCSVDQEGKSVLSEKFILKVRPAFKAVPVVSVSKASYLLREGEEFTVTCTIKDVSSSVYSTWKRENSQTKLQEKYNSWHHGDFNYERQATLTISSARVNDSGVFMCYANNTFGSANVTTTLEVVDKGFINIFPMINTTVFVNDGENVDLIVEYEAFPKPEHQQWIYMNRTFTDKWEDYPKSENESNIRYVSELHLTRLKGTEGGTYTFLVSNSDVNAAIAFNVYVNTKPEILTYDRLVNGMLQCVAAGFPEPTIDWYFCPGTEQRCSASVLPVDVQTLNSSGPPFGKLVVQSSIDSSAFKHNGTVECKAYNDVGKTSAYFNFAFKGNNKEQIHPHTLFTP
The description is as above.
Description: as §1, §2, §3

The target of assay [7] is N-terminal domain of human CD117, soluble (HuCD117 1-308) (human, UniProt P10721 26-308). The description is as above.
Chain of N-terminal domain of human CD117, soluble (HuCD117 1-308) (P10721 26-308): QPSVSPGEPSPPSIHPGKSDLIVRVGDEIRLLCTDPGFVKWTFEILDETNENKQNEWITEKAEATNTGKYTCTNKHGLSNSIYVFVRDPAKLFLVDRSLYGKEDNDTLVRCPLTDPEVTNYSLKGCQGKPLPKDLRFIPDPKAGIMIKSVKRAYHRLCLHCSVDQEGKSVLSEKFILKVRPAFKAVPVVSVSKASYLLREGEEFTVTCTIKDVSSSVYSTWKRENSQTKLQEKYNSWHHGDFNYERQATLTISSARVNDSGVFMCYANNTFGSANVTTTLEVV
Description: as §1, §2, §3

Chain of Human CD117 (c-kit), cell-surface expressed (P10721 26-976 limits assumed): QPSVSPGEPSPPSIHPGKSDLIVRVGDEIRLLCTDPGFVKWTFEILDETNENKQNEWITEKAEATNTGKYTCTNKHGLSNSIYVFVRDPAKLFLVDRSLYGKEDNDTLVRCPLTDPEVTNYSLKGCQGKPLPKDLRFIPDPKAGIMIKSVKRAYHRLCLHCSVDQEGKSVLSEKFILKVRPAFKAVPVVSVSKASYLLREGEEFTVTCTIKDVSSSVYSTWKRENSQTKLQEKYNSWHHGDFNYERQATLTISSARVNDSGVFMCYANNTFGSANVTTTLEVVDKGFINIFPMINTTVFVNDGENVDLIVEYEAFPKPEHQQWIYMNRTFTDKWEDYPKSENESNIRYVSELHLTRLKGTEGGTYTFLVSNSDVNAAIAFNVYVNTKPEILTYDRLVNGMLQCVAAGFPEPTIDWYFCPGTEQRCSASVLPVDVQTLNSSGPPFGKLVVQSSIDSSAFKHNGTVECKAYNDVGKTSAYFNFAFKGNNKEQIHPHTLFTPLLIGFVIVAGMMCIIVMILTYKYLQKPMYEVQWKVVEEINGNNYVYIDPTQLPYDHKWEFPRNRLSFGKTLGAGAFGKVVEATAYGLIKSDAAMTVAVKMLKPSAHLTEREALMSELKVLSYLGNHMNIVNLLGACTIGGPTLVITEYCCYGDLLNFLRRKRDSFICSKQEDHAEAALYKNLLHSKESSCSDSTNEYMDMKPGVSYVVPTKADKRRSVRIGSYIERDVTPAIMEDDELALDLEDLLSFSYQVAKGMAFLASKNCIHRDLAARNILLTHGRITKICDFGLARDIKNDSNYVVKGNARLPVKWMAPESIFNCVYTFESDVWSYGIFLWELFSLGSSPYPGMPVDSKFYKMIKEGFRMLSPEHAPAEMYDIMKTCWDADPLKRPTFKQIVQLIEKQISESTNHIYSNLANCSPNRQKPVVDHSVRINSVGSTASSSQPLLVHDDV

B1: 3B3 IgA2 anti-CD117 antibody (Example 8) (antibody, V domains shown)
VH: EVQLVESGGGVVQPGRSLRLSCAASGFTFSSYAMHWVRQAPGKGLEWVSVIYSGGSTYYADSVKGRFTISRDNSKNTLYLQMNSLRAEDTAVYYCARDSSGYRGDFDYWGQGTLVTVSS
VL: SYELTQPPSVSVSPGQTASITCSGDKVGAKYVFWYQQKPGQSPVLVVYQDNKRPSGIPERFSGSNSGNTATLTISGTQAMDEADYYCQAWDSSTALYVFGTGTKV
In the case of B1, in assay [1], the “EC50 of trogocytosis (ADCT; DILC18 membrane uptake by neutrophils from CD117-transfected 293 cells)” value (“EC50 of trogocytosis” for short) turned out to be 0.44 nM and the “Normalised uptake (B max) in %, ADCT” value stood at 51.1%.

B2: hu3B3 IgG4 (hu3B3-hLG4) (antibody)
heavy: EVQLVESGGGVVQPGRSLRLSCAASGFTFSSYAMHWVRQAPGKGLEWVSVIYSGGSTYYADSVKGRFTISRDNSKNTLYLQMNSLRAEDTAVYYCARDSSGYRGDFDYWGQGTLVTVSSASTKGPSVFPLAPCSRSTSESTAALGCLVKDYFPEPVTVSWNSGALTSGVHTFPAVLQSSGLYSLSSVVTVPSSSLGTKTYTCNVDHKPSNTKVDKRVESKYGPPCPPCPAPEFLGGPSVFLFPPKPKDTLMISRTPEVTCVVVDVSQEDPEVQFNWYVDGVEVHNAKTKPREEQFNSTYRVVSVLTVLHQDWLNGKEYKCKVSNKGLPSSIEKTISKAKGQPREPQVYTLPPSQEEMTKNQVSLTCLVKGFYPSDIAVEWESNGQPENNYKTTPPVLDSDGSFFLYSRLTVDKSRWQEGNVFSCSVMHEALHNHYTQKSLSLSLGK
light: SYELTQPPSVSVSPGQTASITCSGDKVGAKYVFWYQQKPGQSPVLVVYQDNKRPSGIPERFSGSNSGNTATLTISGTQAMDEADYYCQAWDSSTALYVFGTGTKVTVLGQPKANPTVTLFPPSSEELQANKATLVCLISDFYPGAVTVAWKADGSPVKAGVETTKPSKQSNNKYAASSYLSLTPEQWKSHRSYSCQVTHEGSTVEKTVAPTECS
B2: the binding result in assay [2] is “no binding (tested: 225 nM)”. The molecule also gave a Kd in assay [3] of 9 nM.

B3: hu3B3 IgA2 (hu3B3-hLhA2 (P221R)) (antibody)
heavy: EVQLVESGGGVVQPGRSLRLSCAASGFTFSSYAMHWVRQAPGKGLEWVSVIYSGGSTYYADSVKGRFTISRDNSKNTLYLQMNSLRAEDTAVYYCARDSSGYRGDFDYWGQGTLVTVSSASPTSPKVFPLSLDSTPQDGNVVVACLVQGFFPQEPLSVTWSESGQNVTARNFPPSQDASGDLYTTSSQLTLPATQCPDGKSVTCHVKHYTNSSQDVTVPCRVPPPPPCCHPRLSLHRPALEDLLLGSEANLTCTLTGLRDASGATFTWTPSSGKSAVQGPPERDLCGCYSVSSVLPGCAQPWNHGETFTCTAAHPELKTPLTANITKSGNTFRPEVHLLPPPSEELALNELVTLTCLARGFSPKDVLVRWLQGSQELPREKYLTWASRQEPSQGTTTFAVTSILRVAAEDWKKGDTFSCMVGHEALPLAFTQKTIDRLAGKPTHVNVSVVMAEVDGTCY
light: SYELTQPPSVSVSPGQTASITCSGDKVGAKYVFWYQQKPGQSPVLVVYQDNKRPSGIPERFSGSNSGNTATLTISGTQAMDEADYYCQAWDSSTALYVFGTGTKVTVLGQPKANPTVTLFPPSSEELQANKATLVCLISDFYPGAVTVAWKADGSPVKAGVETTKPSKQSNNKYAASSYLSLTPEQWKSHRSYSCQVTHEGSTVEKTVAPTECS
As to B3, the binding result in assay [4] is given as “no binding (tested: 200 nM (highest CD117 concentration))”. Also, the Kd worked out at 4.4 nM in assay [5], 2.5 nM in assay [6] and 0.49 nM in assay [7].

B4: 4A2 IgA2 anti-CD117 antibody (Example 8) (antibody, V domains shown)
VH: EVQLLESGGGLVQPGGSLRLSCAASGFTFSDYGMSWVRQAPGKGLEWVSAIGYGGGGKYYADSVKGRFTISRDNSKNTLYLQMNSLRAEDTAVYYCAKDTWWLAGLFDYWGQGTLVTVSS
VL: EIVLTQSPGTLSLSPGKRATLSCRASQSVSNSYLAWYQQKPGQPPKLLIYWASTRESGVPDRFSGSGSGTDFTLTISSLQAEDVAVYYCQQYYSTPLTFGGGTKVEIKR
Regarding B4, in assay [1], the “EC50 of trogocytosis” value worked out at 0.64 nM and the “Normalised uptake (B max) in %, ADCT” value amounted to 95.3%.

B5: 3C2 IgA2 anti-CD117 antibody (Example 8) (antibody, V domains shown)
VH: EVQLAESGGDLVQPGGSLRLSCAASGFTFSSYAMSWVRQAPGKGLEWVSAISGSGGSTYYADSVKGRFTISRDNSKNTLYLQMNSLRAEDTAIYYCARDLRVYAMEAFDIWGQGTMVTVSS
VL: SYELTQDPAVSVALGQTVRITCQGDSLRDYYANWFQQKPGQAPLLVIFYDSDRPSGIPERFSGSNSGNTATLTISRVEAGDEADYYCQAWDSSSDHWVFGGGTKL
Take B5: the “Normalised uptake (B max) in %, ADCT” value in assay [1] came out at 3.38%.

B6: hu3C2 IgG4 (hu3C2-hLG4p) (antibody)
heavy: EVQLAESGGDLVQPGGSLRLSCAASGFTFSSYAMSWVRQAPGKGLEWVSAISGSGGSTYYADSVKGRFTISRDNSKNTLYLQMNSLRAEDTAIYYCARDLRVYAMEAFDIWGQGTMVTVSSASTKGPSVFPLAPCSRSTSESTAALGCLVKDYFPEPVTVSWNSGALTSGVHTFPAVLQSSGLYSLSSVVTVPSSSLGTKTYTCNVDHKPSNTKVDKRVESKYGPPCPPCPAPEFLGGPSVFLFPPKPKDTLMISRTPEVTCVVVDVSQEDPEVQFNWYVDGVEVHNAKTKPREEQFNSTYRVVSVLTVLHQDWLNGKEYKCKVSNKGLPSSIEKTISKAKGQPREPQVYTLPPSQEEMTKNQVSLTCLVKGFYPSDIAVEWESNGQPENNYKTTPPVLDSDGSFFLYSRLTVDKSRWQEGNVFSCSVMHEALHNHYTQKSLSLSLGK
light: SYELTQDPAVSVALGQTVRITCQGDSLRDYYANWFQQKPGQAPLLVIFYDSDRPSGIPERFSGSNSGNTATLTISRVEAGDEADYYCQAWDSSSDHWVFGGGTKLTVLGQPKAAPSVTLFPPSSEELQANKATLVCLISDFYPGAVTVAWKADGSPVKAGVETTKPSKQSNNKYAASSYLSLTPEQWKSHRSYSCQVTHEGSTVEKTVAPTECS
With B6, the binding result in assay [2] was “no binding (tested: 225 nM)”. Further, binding in assay [3] was characterised by a dissociation constant (Kd) of 14 nM.

B7: hu3C2 IgA2 (hu3C2-hLhA2 (P221R)) (antibody)
heavy: EVQLAESGGDLVQPGGSLRLSCAASGFTFSSYAMSWVRQAPGKGLEWVSAISGSGGSTYYADSVKGRFTISRDNSKNTLYLQMNSLRAEDTAIYYCARDLRVYAMEAFDIWGQGTMVTVSSASPTSPKVFPLSLDSTPQDGNVVVACLVQGFFPQEPLSVTWSESGQNVTARNFPPSQDASGDLYTTSSQLTLPATQCPDGKSVTCHVKHYTNSSQDVTVPCRVPPPPPCCHPRLSLHRPALEDLLLGSEANLTCTLTGLRDASGATFTWTPSSGKSAVQGPPERDLCGCYSVSSVLPGCAQPWNHGETFTCTAAHPELKTPLTANITKSGNTFRPEVHLLPPPSEELALNELVTLTCLARGFSPKDVLVRWLQGSQELPREKYLTWASRQEPSQGTTTFAVTSILRVAAEDWKKGDTFSCMVGHEALPLAFTQKTIDRLAGKPTHVNVSVVMAEVDGTCY
light: SYELTQDPAVSVALGQTVRITCQGDSLRDYYANWFQQKPGQAPLLVIFYDSDRPSGIPERFSGSNSGNTATLTISRVEAGDEADYYCQAWDSSSDHWVFGGGTKLTVLGQPKAAPSVTLFPPSSEELQANKATLVCLISDFYPGAVTVAWKADGSPVKAGVETTKPSKQSNNKYAASSYLSLTPEQWKSHRSYSCQVTHEGSTVEKTVAPTECS
Regarding B7, the binding result in assay [4] is recorded as “no binding (tested: 200 nM (highest CD117 concentration))”. The Kd is 20.9 nM in assay [5], 9.3 nM in assay [6] and 2.44 nM in assay [7].

B8: 3B2 IgA2 anti-CD117 antibody (Example 8) (antibody, V domains shown)
VH: QVQLQESGPGLVKPSETLSLTCTVSGYSISSGYYWGWIRQPPGKGLEWIGSIYHSGSTYYNPSLKSRVTISVDTSKNQFSLKLSSVTAADTAVYYCARVGVRYFDWLLYGAFDIWGQGTMVTVSS
VL: SYELTQPPSVSVSPGQTATITCSGDKLGETYVHWYQHQSGQSPILVVYQDFKRPSGIPERFSGSNSGNTATLTISGTQAMDEADYYCQAWDSSTAVFGGGTKL
Turning to B8, in assay [1], the “EC50 of trogocytosis” value came out at 4.51 nM and the “Normalised uptake (B max) in %, ADCT” value was found to be 42.7%.

B9: hu4A2 IgG4 (hu4A2-hKG4p) (antibody)
heavy: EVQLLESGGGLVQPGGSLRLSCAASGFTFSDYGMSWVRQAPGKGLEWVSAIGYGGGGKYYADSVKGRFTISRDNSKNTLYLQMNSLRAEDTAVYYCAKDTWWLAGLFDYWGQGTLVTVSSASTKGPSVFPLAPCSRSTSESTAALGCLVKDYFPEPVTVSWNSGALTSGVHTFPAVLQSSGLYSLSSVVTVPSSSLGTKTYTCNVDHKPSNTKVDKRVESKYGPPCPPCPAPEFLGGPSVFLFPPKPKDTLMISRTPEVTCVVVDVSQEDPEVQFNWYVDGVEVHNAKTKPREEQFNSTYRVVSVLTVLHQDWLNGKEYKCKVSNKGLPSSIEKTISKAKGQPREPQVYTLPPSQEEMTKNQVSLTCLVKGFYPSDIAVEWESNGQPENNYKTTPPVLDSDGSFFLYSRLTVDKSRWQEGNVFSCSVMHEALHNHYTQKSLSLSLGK
light: IVLTQSPGTLSLSPGKRATLSCRASQSVSNSYLAWYQQKPGQPPKLLIYWASTRESGVPDRFSGSGSGTDFTLTISSLQAEDVAVYYCQQYYSTPLTFGGGTKVEIKRTVAAPSVFIFPPSDEQLKSGTASVVCLLNNFYPREAKVQWKVDNALQSGNSQESVTEQDSKDSTYSLSSTLTLSKADYEKHKVYACEVTHQGLSSPVTKSFNRGEC
notes: Human IgG4, kappa
As to B9, the Kd is 43.4 nM in assay [5], 38.3 nM in assay [6], 19.9 nM in assay [7] and 49 nM in assay [3]. For the same molecule, the binding result in assay [2] is listed as “no binding (tested: 225 nM)”.
